PMC11747444

Biological target: recombinant strep-tagged apo-APC/C, dephosphorylated (UniProt Q9H1A4)
Sequence of UniProt Q9H1A4 (Q9H1A4 whole entry, looked up): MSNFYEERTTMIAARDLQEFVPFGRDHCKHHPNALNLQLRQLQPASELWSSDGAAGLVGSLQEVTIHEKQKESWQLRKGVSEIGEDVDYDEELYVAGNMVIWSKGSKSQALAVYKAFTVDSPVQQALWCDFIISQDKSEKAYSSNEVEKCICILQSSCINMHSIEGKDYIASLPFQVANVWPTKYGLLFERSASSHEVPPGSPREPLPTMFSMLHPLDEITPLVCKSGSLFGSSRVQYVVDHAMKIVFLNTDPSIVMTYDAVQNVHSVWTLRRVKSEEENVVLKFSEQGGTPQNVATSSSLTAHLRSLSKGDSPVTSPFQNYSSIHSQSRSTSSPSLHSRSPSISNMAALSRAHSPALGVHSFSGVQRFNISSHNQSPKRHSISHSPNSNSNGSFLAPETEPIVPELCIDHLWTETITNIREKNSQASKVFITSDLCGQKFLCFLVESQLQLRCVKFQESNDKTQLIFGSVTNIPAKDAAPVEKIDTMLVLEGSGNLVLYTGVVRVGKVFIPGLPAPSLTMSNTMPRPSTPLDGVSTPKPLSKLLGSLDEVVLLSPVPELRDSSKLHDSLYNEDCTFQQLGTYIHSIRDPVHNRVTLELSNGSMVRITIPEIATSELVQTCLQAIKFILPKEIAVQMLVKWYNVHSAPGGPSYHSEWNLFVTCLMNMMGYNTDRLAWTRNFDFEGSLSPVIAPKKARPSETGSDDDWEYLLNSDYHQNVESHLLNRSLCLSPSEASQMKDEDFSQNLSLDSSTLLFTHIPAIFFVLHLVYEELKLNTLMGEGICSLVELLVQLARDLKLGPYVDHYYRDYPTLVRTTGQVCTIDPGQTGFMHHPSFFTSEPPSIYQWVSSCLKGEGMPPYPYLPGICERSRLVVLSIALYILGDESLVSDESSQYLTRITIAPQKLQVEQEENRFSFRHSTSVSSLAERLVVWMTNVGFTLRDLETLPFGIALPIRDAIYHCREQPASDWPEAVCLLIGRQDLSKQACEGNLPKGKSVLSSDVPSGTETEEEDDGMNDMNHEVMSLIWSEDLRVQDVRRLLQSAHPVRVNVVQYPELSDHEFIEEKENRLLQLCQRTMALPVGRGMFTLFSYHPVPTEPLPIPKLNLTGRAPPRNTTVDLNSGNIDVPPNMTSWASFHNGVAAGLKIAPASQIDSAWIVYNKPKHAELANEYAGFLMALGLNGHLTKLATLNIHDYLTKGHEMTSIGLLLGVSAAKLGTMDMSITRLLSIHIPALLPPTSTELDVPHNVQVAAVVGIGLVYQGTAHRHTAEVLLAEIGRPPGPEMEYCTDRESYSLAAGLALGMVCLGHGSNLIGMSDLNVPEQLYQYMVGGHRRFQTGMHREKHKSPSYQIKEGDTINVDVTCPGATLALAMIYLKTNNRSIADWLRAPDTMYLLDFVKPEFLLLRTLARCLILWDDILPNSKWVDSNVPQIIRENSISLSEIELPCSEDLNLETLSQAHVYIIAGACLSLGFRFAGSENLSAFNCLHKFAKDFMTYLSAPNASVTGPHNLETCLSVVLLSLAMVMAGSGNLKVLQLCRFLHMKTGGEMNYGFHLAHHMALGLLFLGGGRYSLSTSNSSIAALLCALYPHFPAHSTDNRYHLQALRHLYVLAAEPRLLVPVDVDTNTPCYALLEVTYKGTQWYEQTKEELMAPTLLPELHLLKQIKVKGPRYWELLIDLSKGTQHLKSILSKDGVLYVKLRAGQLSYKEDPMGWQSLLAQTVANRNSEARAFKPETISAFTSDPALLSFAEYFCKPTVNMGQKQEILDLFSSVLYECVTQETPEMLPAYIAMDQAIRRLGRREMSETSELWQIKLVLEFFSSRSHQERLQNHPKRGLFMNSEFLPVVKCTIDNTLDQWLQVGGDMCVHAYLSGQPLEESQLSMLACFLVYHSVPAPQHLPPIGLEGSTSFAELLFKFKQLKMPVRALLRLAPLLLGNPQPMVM

phosphosites on dephosphorylated recombinant APC/C after in vitro phosphorylation, by mass spectrometry: 28 phosphosites
Substance: CDK1/CKS1/cyclin B1^wt complex (CCC^wt) (from UniProt P06493 1-297; P61024 1-79; P14635 1-433)
